Results from patent US20050137135A1 (priority 2002, published 2005).
Square brackets hold non-standard residues; d marks the D form. Ends that are not written are not given here. Peptide text beside a SMILES is read from it. Ahx = NCCCCCC(=O)O

Key:
purified kidney DPIV = target: T1, purified kidney DPIV (Sus scrofa, UniProt P22411); experiment: Determination of DPIV resistance by MALDI-TOF mass spectrometry; format: in vitro ADME; conditions: for half-life: read-out: half life after incubation with DP IV
T1 construct: The hydrolysis of peptide analogues by purified kidney DPIV was studied as described previously [12]; from tissue; host or cells: kidney
Description: The hydrolysis of peptide analogues by purified kidney DPIV was studied as described previously. […] Samples were removed from the incubation mixture and prepared for MALDI-TOF mass spectrometry, as described in Pauly, […]., Pederson, R. A., and Demuth, H. U.

[1] = target: T2, rat pancreatic islet (wild type) GIP-receptor stably expressed on CHO-K1 cells (rat, UniProt P43219 19-455); experiment: displacement of 125I-GIP from CHO-K1 cells transfected with rat GIP receptor, 20 µM peptide
T2 construct: whole, on cells; also called wtGIPR cells; wtGIP-R1 cells
T2 sequence (looked up): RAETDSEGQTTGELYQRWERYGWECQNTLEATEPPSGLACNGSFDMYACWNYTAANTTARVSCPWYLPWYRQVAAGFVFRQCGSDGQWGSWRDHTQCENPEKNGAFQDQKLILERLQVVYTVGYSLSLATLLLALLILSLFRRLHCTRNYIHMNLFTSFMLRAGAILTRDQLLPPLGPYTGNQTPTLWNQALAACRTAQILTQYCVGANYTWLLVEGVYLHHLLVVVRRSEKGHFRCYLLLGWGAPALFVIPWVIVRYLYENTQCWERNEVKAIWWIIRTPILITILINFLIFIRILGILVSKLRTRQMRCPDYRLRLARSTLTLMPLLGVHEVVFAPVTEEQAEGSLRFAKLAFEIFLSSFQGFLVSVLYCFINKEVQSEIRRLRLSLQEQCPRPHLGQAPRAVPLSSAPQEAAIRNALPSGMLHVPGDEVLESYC
Description: (§1) Cells were cultured in DMEM/F12, supplemented with 10% newborn calf serum, 50 units/ml penicillin G, and 50 μg/ml streptomycin (Culture media and antibiotics from Gibco BRL, Life Technologies). Cells were grown in 75 cm² flasks until 80-90% confluent, when they were split and seeded onto 24 well plates at a density of 50,000 cells/well. Experiments were carried out 48 h later.
(§2) Binding studies using ¹²⁵I-labeled spGIP₁₋₄₂, purified by high performance liquid chromatography (HPLC), were performed essentially as described previously-[21]. wtGIP-R1 Cells (1-5×10⁵/well) were washed twice at 4° C. in binding buffer (BB), consisting of DMEM/F12 (GIBCO), 15 mM HEPES, 0.1% bovine serum albumin (BSA), 1% Trasylol (aprotinin; Bayer), pH 7.4. They were incubated for 12-16 h at 4° C. with ¹²⁵I-spGIP (50,000 cpm) in the presence or absence of unlabeled GIP₁₋₄₂ or analogue. Following incubation, cells were washed twice with ice cold buffer, solubilized with 0.1 M NaOH (1 ml), and transferred to culture tubes for counting of cell-associated radioactivity. Nonspecific binding was defined as that measured in the presence of 1 μM GIP₁₋₄₂ or GIP₁₋₃₀, and specific binding expressed as % of binding in the absence of competitor (% B/Bo).

[2] = target: T2, rat pancreatic islet (wild type) …; experiment: competition with 125I-GIP on CHO-K1 cells transfected with rat GIP receptor
Description: as §1, §2

[3] = target: T2, rat pancreatic islet (wild type) …; experiment: cell-based or functional assay
[4] = purified kidney DPIV, 0.04 M Tris buffer pH 7.6, up to 24 h, MALDI-TOF MS

T1 sequence (P22411 whole entry): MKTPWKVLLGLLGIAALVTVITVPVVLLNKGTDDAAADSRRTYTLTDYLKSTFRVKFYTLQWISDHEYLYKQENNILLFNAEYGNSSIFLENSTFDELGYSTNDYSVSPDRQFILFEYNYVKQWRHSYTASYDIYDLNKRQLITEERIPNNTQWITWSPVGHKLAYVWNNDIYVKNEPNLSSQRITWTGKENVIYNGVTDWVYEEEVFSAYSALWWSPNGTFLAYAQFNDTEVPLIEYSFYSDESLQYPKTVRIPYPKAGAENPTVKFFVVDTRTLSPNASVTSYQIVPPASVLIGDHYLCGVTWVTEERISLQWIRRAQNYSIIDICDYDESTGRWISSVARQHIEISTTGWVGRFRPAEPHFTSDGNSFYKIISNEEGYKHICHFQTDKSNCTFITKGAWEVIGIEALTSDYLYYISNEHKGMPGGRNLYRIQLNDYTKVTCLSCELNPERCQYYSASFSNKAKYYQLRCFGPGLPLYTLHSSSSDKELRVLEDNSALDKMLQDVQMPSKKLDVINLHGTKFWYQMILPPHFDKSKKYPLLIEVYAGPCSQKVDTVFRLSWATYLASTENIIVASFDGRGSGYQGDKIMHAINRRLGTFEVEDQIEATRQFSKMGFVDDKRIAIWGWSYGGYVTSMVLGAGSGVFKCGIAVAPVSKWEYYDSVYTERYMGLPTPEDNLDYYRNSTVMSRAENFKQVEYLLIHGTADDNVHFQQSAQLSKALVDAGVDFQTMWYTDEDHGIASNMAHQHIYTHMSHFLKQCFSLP

For `C[C@@H](NC(=O)[C@@H](N)Cc1ccc(O)cc1)C(=O)N[C@@H](CCC(=O)O)C(=O)NCC(=O)N[C@H](C(=O)N[C@@H](Cc1ccccc1)C(N)=O)[C@@H](C)O` [D-Ala^2-GIP1-6a] (H-Y[dA]EGTF-NH2), the “half life after incubation with DP IV” value (purified kidney DPIV; [4]) was “stable”.

`CC[C@H](C)[C@H](NC(=O)[C@H](CO)NC(=O)[C@H](Cc1ccc(O)cc1)NC(=O)[C@H](CC(=O)O)NC(=O)[C@H](CO)NC(=O)[C@@H](NC(=O)[C@H](Cc1ccccc1)NC(=O)[C@@H](NC(=O)CNC(=O)[C@H](CCC(=O)O)NC(=O)[C@@H](C)NC(=O)[C@@H](N)Cc1ccc(O)cc1)[C@@H](C)O)[C@@H](C)CC)C(=O)N[C@@H](C)C(=O)N[C@@H](CCSC)C(=O)O` [D-Ala^2-GIP1-14] was tested, and the “half life after incubation with DP IV” value (purified kidney DPIV; [4]) was “stable”.

Work on `CC[C@H](C)[C@H](NC(=O)[C@H](CO)NC(=O)[C@H](Cc1ccc(O)cc1)NC(=O)[C@H](CC(=O)O)NC(=O)[C@H](CO)NC(=O)[C@@H](NC(=O)[C@H](Cc1ccccc1)NC(=O)[C@@H](NC(=O)CNC(=O)[C@H](CCC(=O)O)NC(=O)[C@H](C)NC(=O)[C@@H](N)Cc1ccc(O)cc1)[C@@H](C)O)[C@@H](C)CC)C(=O)N[C@@H](C)C(=O)O` [GIP1-13] yielded a half-life (purified kidney DPIV; [4]) of 11.5 ± 2.5 min.

With `CC[C@H](C)[C@H](NC(=O)[C@H](CO)NC(=O)[C@H](Cc1ccc(O)cc1)NC(=O)[C@H](CC(=O)O)NC(=O)[C@H](CO)NC(=O)[C@@H](NC(=O)[C@H](Cc1ccccc1)NC(=O)[C@@H](NC(=O)CNC(=O)[C@H](CCC(=O)O)NC(=O)[C@H](C)NC(=O)[C@@H](N)Cc1ccc(O)cc1)[C@@H](C)O)[C@@H](C)CC)C(=O)N[C@@H](C)C(=O)N[C@@H](CCSC)C(=O)N[C@@H](CC(=O)O)C(=O)O` [GIP1-15] the half-life (purified kidney DPIV; [4]) was 35 ± 5.2 min.

With “D-Ala^2-GIP1-30a: GIP1-30 analog, N-terminal sequence Tyr-D-Ala-Glu-Gly (Y[dA]EGTFISDYSIAMDKIRQQDFVNWLLAQK-NH2)” the “half life after incubation with DP IV” value (purified kidney DPIV; pH 7.6) was “stable”.

In the case of “Tyr-Ala-Ψ(CH2NH2)-Glu-Gly-Thr-Phe-Ile-Ser-Asp-Tyr-Ser-Ile-Ala-Met (EGTFISDYSIAM; not fully specified; N-terminal Tyr-Ala reduced bond, C-amide; printed: Glu-Gly-Thr-Phe-Ile-Ser-Asp-Tyr-Ser-Ile-Ala-Met) [YAψ(CH2NH)-GIP3-14a, GIP1-14 analogue with a reduced peptide bond]”, the “half life after incubation with DP IV” value (purified kidney DPIV; pH 7.6) is reported as “stable”.

In the case of “Tyr-Ala-ψ(CH2NH)-Glu-Gly-Thr-Phe-Ile-Ser-Asp-Tyr-Ser-Ile-Ala-Met-Asp-Lys-Ile-His-Gln-Gln-Asp-Phe-Val-Asn-Trp-Leu-Leu-Ala-Gln-Lys [YAψ(CH2NH)-GIP3-30a]”, the “half life after incubation with DP IV” value (purified kidney DPIV; pH 7.6) is reported as “stable”.

With YAPGTF-NH2 [Pro3-GIP1-6a] the “half life after incubation with DP IV” value (purified kidney DPIV; [4]) was “stable”.

In the case of YAPGTFISDYSIAM [Pro^3-GIP1-14], the “half life after incubation with DP IV” value (purified kidney DPIV; [4]) is reported as “stable”.

For YGEGTF-NH2 [Gly^2-GIP1-6a], the “half life after incubation with DP IV” value (purified kidney DPIV; [4]) was “Not detectable^b”.

YSEGTF-NH2 [Ser^2-GIP1-6a] was tested, and the half-life (purified kidney DPIV; [4]) was 79 ± 12.2 min.

In the case of YVEGTF-NH2 [Val^2-GIP1-6a], the “half life after incubation with DP IV” value (purified kidney DPIV; [4]) is reported as “Not detectable”.

B1: GIP(1-14)(Ahx)1(19-30)NH2 (peptide, UniProt P09681 52-65, looked up)
peptide: YAEGTFISDYSIAM[Ahx]QQDFVNWLLAQK-NH2
modifications: N-terminus assumed
SMILES: CC[C@H](C)[C@H](NC(=O)[C@H](CO)NC(=O)[C@H](Cc1ccc(O)cc1)NC(=O)[C@H](CC(=O)O)NC(=O)[C@H](CO)NC(=O)[C@@H](NC(=O)[C@H](Cc1ccccc1)NC(=O)[C@@H](NC(=O)CNC(=O)[C@H](CCC(=O)O)NC(=O)[C@H](C)NC(=O)[C@@H](N)Cc1ccc(O)cc1)[C@@H](C)O)[C@@H](C)CC)C(=O)N[C@@H](C)C(=O)N[C@@H](CCSC)C(=O)NCCCCCC(=O)N[C@@H](CCC(N)=O)C(=O)N[C@@H](CCC(N)=O)C(=O)N[C@@H](CC(=O)O)C(=O)N[C@@H](Cc1ccccc1)C(=O)N[C@H](C(=O)N[C@@H](CC(N)=O)C(=O)N[C@@H](Cc1c[nH]c2ccccc12)C(=O)N[C@@H](CC(C)C)C(=O)N[C@@H](CC(C)C)C(=O)N[C@@H](C)C(=O)N[C@@H](CCC(N)=O)C(=O)N[C@@H](CCCCN)C(N)=O)C(C)C
notes: range 52-65
B1 was tested, and the “% Displacement at 20 µM” value [1] was 86.1%, the IC50 [2] was 2710 nM and the “Max. cAMP (Fold Basal)” value [3] was 102 fold basal. For the same molecule, the “cAMP Production EC50” value [3] was 1410 nM.

B2: GIP(1-14)(Ahx)2(19-30)NH2 (peptide, UniProt P09681 52-65, looked up)
peptide: YAEGTFISDYSIAM[Ahx][Ahx]QQDFVNWLLAQK-NH2
modifications: N-terminus assumed
SMILES: CC[C@H](C)[C@H](NC(=O)[C@H](CO)NC(=O)[C@H](Cc1ccc(O)cc1)NC(=O)[C@H](CC(=O)O)NC(=O)[C@H](CO)NC(=O)[C@@H](NC(=O)[C@H](Cc1ccccc1)NC(=O)[C@@H](NC(=O)CNC(=O)[C@H](CCC(=O)O)NC(=O)[C@H](C)NC(=O)[C@@H](N)Cc1ccc(O)cc1)[C@@H](C)O)[C@@H](C)CC)C(=O)N[C@@H](C)C(=O)N[C@@H](CCSC)C(=O)NCCCCCC(=O)NCCCCCC(=O)N[C@@H](CCC(N)=O)C(=O)N[C@@H](CCC(N)=O)C(=O)N[C@@H](CC(=O)O)C(=O)N[C@@H](Cc1ccccc1)C(=O)N[C@H](C(=O)N[C@@H](CC(N)=O)C(=O)N[C@@H](Cc1c[nH]c2ccccc12)C(=O)N[C@@H](CC(C)C)C(=O)N[C@@H](CC(C)C)C(=O)N[C@@H](C)C(=O)N[C@@H](CCC(N)=O)C(=O)N[C@@H](CCCCN)C(N)=O)C(C)C
notes: range 52-65
In the case of B2, the “% Displacement at 20 µM” value [1] is reported as 85.8%, the IC50 [2] is reported as 2770 nM and the “Max. cAMP (Fold Basal)” value [3] is reported as 95.9 fold basal. The “cAMP Production EC50” value [3] was 2510 nM.

B3: GIP(1-14)(Ahx)3(19-30)NH2 (peptide, UniProt P09681 52-65, looked up)
peptide: YAEGTFISDYSIAM[Ahx][Ahx][Ahx]QQDFVNWLLAQK-NH2
modifications: N-terminus assumed
SMILES: CC[C@H](C)[C@H](NC(=O)[C@H](CO)NC(=O)[C@H](Cc1ccc(O)cc1)NC(=O)[C@H](CC(=O)O)NC(=O)[C@H](CO)NC(=O)[C@@H](NC(=O)[C@H](Cc1ccccc1)NC(=O)[C@@H](NC(=O)CNC(=O)[C@H](CCC(=O)O)NC(=O)[C@H](C)NC(=O)[C@@H](N)Cc1ccc(O)cc1)[C@@H](C)O)[C@@H](C)CC)C(=O)N[C@@H](C)C(=O)N[C@@H](CCSC)C(=O)NCCCCCC(=O)NCCCCCC(=O)NCCCCCC(=O)N[C@@H](CCC(N)=O)C(=O)N[C@@H](CCC(N)=O)C(=O)N[C@@H](CC(=O)O)C(=O)N[C@@H](Cc1ccccc1)C(=O)N[C@H](C(=O)N[C@@H](CC(N)=O)C(=O)N[C@@H](Cc1c[nH]c2ccccc12)C(=O)N[C@@H](CC(C)C)C(=O)N[C@@H](CC(C)C)C(=O)N[C@@H](C)C(=O)N[C@@H](CCC(N)=O)C(=O)N[C@@H](CCCCN)C(N)=O)C(C)C
notes: range 52-65; also called GlP(1-14)(Ahx)3(19-30)NH2
For B3, the “% Displacement at 20 µM” value [1] was 82.7%, the IC50 [2] was 3210 nM and the “Max. cAMP (Fold Basal)” value [3] was 49.5 fold basal. For the same molecule, the “cAMP Production EC50” value [3] was about 20000 nM.
